Results reported in patent US20240368233A1 (University of Washington, published 2024).

Columns and labels:
DFA-1 = molecular target: T1, DFA-1; assay: SEC of mixed components; trimer listed in Table 6
T1 construct: Bivalent connector
T1 chain: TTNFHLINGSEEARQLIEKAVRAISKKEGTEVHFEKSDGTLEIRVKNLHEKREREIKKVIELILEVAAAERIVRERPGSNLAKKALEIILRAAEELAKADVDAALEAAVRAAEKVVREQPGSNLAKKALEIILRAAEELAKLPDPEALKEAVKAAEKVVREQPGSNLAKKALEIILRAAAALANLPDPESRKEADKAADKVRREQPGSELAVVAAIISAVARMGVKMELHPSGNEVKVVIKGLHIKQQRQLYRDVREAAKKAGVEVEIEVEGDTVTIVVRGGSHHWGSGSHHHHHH

DFA0 = molecular target: T2, DFA0; assay: SEC of mixed components; linear tetramer listed in Table 6, neighbours in the chain
T2 construct: Bivalent connector
T2 chain: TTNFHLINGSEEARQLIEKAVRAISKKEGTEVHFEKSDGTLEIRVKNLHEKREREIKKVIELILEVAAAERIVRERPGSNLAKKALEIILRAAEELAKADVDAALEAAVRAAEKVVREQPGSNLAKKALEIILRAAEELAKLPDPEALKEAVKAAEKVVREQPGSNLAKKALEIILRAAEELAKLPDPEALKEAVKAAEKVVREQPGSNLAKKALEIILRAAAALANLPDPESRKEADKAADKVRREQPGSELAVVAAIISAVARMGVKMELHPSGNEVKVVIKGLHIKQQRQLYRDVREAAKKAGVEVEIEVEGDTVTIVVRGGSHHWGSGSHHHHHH

LHD101 chainA = molecular target: T3, LHD101 chainA; assay: BLI steady-state titration, biotinylated unfused LHD101A on a streptavidin sensor
T3 construct: also called LHD101A
T3 chain: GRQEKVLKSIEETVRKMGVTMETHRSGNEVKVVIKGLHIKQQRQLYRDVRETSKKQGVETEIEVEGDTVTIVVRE
Description: FIG. 8A-E. Characterization LHD binding in vitro. A: Designed models heterodimers (top row). Middle row, SEC binding experiments performed on a Superdex™ 75 column. Bottom row, biolayer interferometry kinetic binding traces. […] C: Kinetic binding traces from BLI. Equilibrium responses were used to fit equilibrium binding curves D: Equilibrium binding curves of LHDs from biolayer interferometry binding assays with data from C. […] Biotinylated unfused protomers were immobilized on streptavidin coated biosensors.
Biolayer interferometry experiments were performed on an OctetRED96 BLI system (ForteBio, Menlo Park, CA). Streptavidin coated biosensors were first equilibrated for at least 10 minutes in Octet buffer (10 mM HEPES pH 7.4, 150 mM NaCl, 3 mM EDTA, 0.05% Surfactant P20) supplemented with 1 mg/ml Bovine Serum Albumin (SigmaAldrich). Enzymatically biotinylated designs were immobilized onto the biosensors by dipping the biosensors into a solution with 10-50 nM protein for 30-120 s. This was followed by dipping in fresh octet buffer to establish a baseline for 120 s. Titration experiments were performed at 25° C. while rotating at 1,000 r.p.m. […]

Measured: binding result

B1: 101B62 (designed binder)
chain: HHHHHHGSGLNDIFEAQKIEWHEAENLYFQSGSNDEKRKRAEKALQRAQEAEKKGDVEEAVRAAQEAVRAAKESGDNDVLRKVAEQALRIAKEAEKQGNVEVAVKAARVAVEAAKQAGDNDVLRKVAEQALRIAKEALKQGNVDVAAKAAQVAEEAAKQAGDQDVLRKVKEVQIEIVLAAIELTVRKMGVTMETHRSGREVKVVIKGLHESQQEQLLEDVLRIAELAGVRVRIRFKGDTVTIVVRG
notes: also called LHD101B62
binds: DFA-1 | DFA0 | LHD101 chainA
